Reference: publication PMC4365404, “Understanding the effect of alternative splicing in the folding and function of the second PDZ from Protein Tyrosine Phosphatase-BL” (Scientific Reports, 2015)
Where a SMILES comes first, the peptide text is derived from it. Where no end group is shown, it is not given here. The star is where a group is joined. Dansyl = CN(C)c1cccc2c(S(=O)(=O)*)cccc12

T1: pWT43 PDZ2as (Mus musculus, UniProt Q64512, INS1372VLFDK/Y1385W)
T1 construct: The second PDZ domain of the protein tyrosine phosphatase BL (PDZ2); made in house
T1 sequence (Q64512 with tags, fused parts or gaps INS1372VLFDK/Y1385W): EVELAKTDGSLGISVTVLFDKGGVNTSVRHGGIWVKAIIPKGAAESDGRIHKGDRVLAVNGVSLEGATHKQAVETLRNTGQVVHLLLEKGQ

T2: pWT43 PDZ2as, the alternatively spliced form of the second PDZ domain of protein tyrosine phosphatase BL …
T2 chain: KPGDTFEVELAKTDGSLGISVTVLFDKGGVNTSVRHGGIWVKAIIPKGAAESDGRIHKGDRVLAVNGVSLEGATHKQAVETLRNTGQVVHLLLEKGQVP

B1: Dansylated peptide corresponding to the C-terminus of RIL (D-EQVSAV) (peptide)
peptide: Dansyl-EQVSAV
notes: Which natural protein the peptide comes from is in doubt; also called RIL peptide; source: bought: JPT Peptide Technologies (Berlin, Germany), HPLC-purified, purity higher than 95%
B2: Dansylated peptide corresponding to the C-terminus of APC (D-SYLVTSV) (peptide)
peptide: Dansyl-SYLVTSV
notes: C-terminus of the tumour suppressor protein APC; the last 7 residues; also called APC peptide; source: bought: JPT Peptide Technologies (Berlin, Germany), HPLC-purified, purity higher than 95%

Assays:
pWT43 PDZ2as = target: T1, pWT43 PDZ2as; assay: T-jump kinetic binding of dansylated peptides to pWT43 PDZ2as; conditions: 50 mM sodium phosphate pH 7.2, 150 mM KCl; for Kd: 25°C, from T-jump kinetics, read-out: overall KD obtained from kinetic experiments; for kon / koff: T-jump 16 to 25°C, PDZ2as 2 μM, peptide 100 to 400 μM, fluorescence ex 296 nm, 20 traces averaged, pseudo-first order; for kon: read-out: association bimolecular rate constant kon; for koff: read-out: dissociation rate constant koff
Procedure: Previous studies have highlighted that the alternative splicing affects remarkably the binding function of the PDZ moiety, by nearly abrogating binding. To address the binding mechanism of pWT43 PDZ2as and its physiological partners, we performed kinetic experiments at 25°C. We carried out kinetic binding experiments by subjecting to temperature jump kinetics a constant concentration of pWT43 PDZ2as (2 μM) in the presence of excess concentrations of dansylated peptides mimicking the PDZ binding motif of APC and RIL; the latter concentrations typically varying from 100 to 400 μM. In particular, individual solutions containing a constant concentration of PDZ2as 2 μM and different concentrations of APC and RIL peptide were prepared and, subsequently, each of these solutions was subjected to a rapid temperature-jump to explore sub-ms relaxation binding kinetics. Under all the explored conditions, the observed time course was satisfactorily fitted by a single-exponential function, without evidence for accumulation of detectable intermediates. Analysis of the pseudo-first order dependence of observed rate constants (Figure 6) yields an association bimolecular rate constant kon of (0.44 ± 0.1) 10^6 s^−1 M^−1 and (0.74 ± 0.1) 10^6 s^−1 M^−1 and a dissociation rate constant koff of 145 ± 10 s^−1 and 120 ± 15 s^−1, respectively for APC and RIL peptides. […] A comparison between the observed kinetics on the light of previously reported structural and kinetic data of pWT43 PDZ2 is briefly discussed below.
Figure 6 Binding properties of pWT43 PDZ2as and of pWT43 PDZ2. Pseudo first order kinetics of the binding between pWT43 PDZ2as (circles) and pWT43 PDZ2 (diamonds) carried out at pH 7.2, 25°C. Data refer to both the APC (open symbols) and RIL (filled symbols) peptide.
Dansylated peptides corresponding to the C-terminus of APC and RIL, sequences D-SYLVTSV and D-EQVSAV, respectively, were purchased from JPT Peptide Technologies (Berlin, Germany); peptides were purified using high-performance liquid chromatography-purified peptide with purity higher than 95%.
Binding experiments were performed mixing a constant concentration of PDZ2as 2 μM with increasing concentrations of the APC or RIL peptide ranging from 100 to 400 μM in 50 mM sodium phosphate pH 7.2, in the presence of 150 mM KCl. The experiments were carried out using a Hi-Tech PTJ-64 capacitor-discharge T-jump apparatus (Hi-Tech, Salisbury, U.K.). Temperature was rapidly changed from 16°C to 25°C with a jump of 9°C. 20 individual traces were averaged at given peptide concentration. The fluorescence change of N-acetyltryptophanamide (NATA) was used in control measurements. Protein concentration was typically […]. The excitation wavelength was 296 nm and the fluorescence emission was measured using a band pass 315 +/− 25 nm glass filter.

[1] = target: T2, pWT43 PDZ2as, the alternatively spliced …; assay: temperature-jump fluorescence relaxation kinetics; constant pWT43 PDZ2as 2 uM with dansylated peptide 100 to 400 uM (pseudo-first order); 50 mM sodium phosphate pH 7.2, 150 mM KCl; jump from 16 to 25 °C; KD from kinetics; conditions: both partners purified

Molecule | Kd (pWT43 PDZ2as) | kon (pWT43 PDZ2as) | koff (pWT43 PDZ2as) | Kd [1] | fold decrease of kon against pWT43 PDZ2 [1] | koff [1] | kon [1]
CC(C)C[C@H](NC(=O)[C@H](Cc1ccc(O)cc1)NC(=O)[C@H](CO)NS(=O)(=O)c1cccc2c(N(C)C)cccc12)C(=O)N[C@H](C(=O)N[C@H](C(=O)N[C@@H](CO)C(=O)N[C@H](C(=O)O)C(C)C)[C@@H](C)O)C(C)C [APC] (Dansyl-SYLVTSV-OH) | 352 ± 20 µM | 440000 ± 100000 M⁻¹ s⁻¹ | 145 ± 10 s⁻¹ |  |  |  | 
CC(C)[C@H](NC(=O)[C@H](C)NC(=O)[C@H](CO)NC(=O)[C@@H](NC(=O)[C@H](CCC(N)=O)NC(=O)[C@H](CCC(=O)O)NS(=O)(=O)c1cccc2c(N(C)C)cccc12)C(C)C)C(=O)O [RIL] (Dansyl-EQVSAV-OH) | 162 ± 10 µM | 740000 ± 100000 M⁻¹ s⁻¹ | 120 ± 15 s⁻¹ |  |  |  | 
B1 |  |  |  | 162 ± 10 µM | ~10 fold | 120 ± 15 s⁻¹ | 740000 M⁻¹ s⁻¹
B2 |  |  |  | 352 ± 20 µM | ~10 fold | 145 ± 10 s⁻¹ | 440000 M⁻¹ s⁻¹
